US20190169308A1 (ALLIGATOR BIOSCIENCE, published 2019)

Columns and labels:
[1] = biological target: T1, 5T4-Fc (human, UniProt Q13641 32-355, limits assumed); test: dual ELISA: coated 5T4-Fc, detection with CD137-bio
T1 construct: obtained from Peter L. Stern, University of Manchester; also called h5T4-Fc; recombinant 5T4
T1 sequence (looked up): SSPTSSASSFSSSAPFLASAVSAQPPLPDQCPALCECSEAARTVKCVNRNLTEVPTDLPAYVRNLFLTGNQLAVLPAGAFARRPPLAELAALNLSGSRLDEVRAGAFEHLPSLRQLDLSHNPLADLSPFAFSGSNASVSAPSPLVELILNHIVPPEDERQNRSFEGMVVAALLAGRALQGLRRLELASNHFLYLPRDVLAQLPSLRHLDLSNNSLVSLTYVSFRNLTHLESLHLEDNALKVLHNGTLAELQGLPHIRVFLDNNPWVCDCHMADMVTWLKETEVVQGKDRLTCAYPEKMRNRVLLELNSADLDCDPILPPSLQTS
Procedure: Bispecific binding to both targets, CD137 and 5T4, was evaluated using a standard ELISA protocol. Plates (#655074, Greiner Bio-One GmbH, Germany) were pre-coated with 0.5 μg/ml 5T4-Fc (obtained from Professor Peter Stern, University of Manchester) overnight. CD137-5T4 bsAb were diluted from 8 to 2×10⁻³ μg/ml in 1:4 dilutions and added in duplicates of 50 μl to each well. CD137-bio (Ancell #502-030) was used as detection antibody at 0.5 μg/ml and the binding was detected with Streptavidin-HRP (Pierce #21126). The ELISA was developed with SuperSignal ELISA PICO Chemiluminescent substrate (Thermo Scientific Pierce, Rockford, Ill. USA) during 2-10 minutes and read in an automated microplate based multi-detection reader (FLUOstar OPTIMA, Netherlands).

[2] = biological target: T2, cynomolgus 5T4 on transfected CHO cells (Macaca mulatta (cynomolgus), UniProt F7CT46 35-420); test: flow cytometry, 5T4-transfected CHO cells
T2 construct: also called cyno5T4; cy5T4
T2 sequence: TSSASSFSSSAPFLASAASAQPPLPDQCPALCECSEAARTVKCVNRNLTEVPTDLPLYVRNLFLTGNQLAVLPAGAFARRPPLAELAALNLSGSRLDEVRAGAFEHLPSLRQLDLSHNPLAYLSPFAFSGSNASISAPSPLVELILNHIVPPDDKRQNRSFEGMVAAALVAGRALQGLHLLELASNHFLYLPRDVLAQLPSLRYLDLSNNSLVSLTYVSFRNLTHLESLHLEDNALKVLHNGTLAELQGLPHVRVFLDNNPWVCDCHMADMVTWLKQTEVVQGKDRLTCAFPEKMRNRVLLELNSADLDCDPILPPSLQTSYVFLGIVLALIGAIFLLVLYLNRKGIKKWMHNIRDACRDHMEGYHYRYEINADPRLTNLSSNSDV
Procedure: (§1) The potency of 5T4 antibodies in binding to cynomolgus 5T4 was determined by flow cytometry. CHO cells were stably transfected with […] (cynomolgus) 5T4. […] Samples were analysed either on a FACSCalibur or a FACSverse (BD Biosciences, Heidelberg, Germany) and mean fluorescence intensity (MFI) determined. […] To compare the EC50 values between human and cynomolgus 5T4, the cy5T4/hu5T4 ratio was calculated from the experiment with the full dose-response.

[3] = biological target: T3, human 5T4 on transfected cells (human, UniProt Q13641 32-420); test: flow cytometry, 5T4-transfected B16 cells
T3 construct: whole, on cells; also called B16-5T4; CHOh5T4
T3 sequence (looked up): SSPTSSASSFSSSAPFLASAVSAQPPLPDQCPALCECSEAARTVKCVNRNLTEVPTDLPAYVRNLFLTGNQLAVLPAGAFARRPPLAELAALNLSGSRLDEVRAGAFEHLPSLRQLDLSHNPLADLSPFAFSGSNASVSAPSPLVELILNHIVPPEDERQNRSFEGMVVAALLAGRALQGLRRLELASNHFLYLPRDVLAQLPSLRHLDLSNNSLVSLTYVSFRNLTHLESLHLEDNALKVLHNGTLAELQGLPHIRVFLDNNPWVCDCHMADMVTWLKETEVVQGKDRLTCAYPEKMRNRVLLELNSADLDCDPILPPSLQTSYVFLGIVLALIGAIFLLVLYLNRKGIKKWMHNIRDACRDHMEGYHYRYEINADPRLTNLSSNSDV

[4] = biological target: T4, mouse 5T4 on transfected cells (mouse, UniProt Q9Z0L0 32-426); test: flow cytometry, mouse 5T4-transfected cells
T4 construct: whole, on cells; also called murine 5T4
T4 sequence (looked up): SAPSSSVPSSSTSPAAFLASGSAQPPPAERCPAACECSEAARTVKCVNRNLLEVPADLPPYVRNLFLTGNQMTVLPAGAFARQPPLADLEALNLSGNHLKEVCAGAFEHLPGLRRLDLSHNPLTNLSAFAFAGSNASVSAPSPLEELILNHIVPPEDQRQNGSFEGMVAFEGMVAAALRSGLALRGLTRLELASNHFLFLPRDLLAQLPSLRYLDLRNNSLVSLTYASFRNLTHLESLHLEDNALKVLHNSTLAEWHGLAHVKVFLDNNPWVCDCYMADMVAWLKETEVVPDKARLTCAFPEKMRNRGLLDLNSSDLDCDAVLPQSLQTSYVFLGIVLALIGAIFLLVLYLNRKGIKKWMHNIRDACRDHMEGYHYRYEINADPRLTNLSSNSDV

[5] = biological target: T5, 5T4 (SPR antigen) (UniProt Q13641 32-355, limits assumed, biotinylated on the MASS-1 platform); test: SPR Biacore 3000, amine-coupled 5T4, mAb injected (bivalent)
T5 construct: also called biotinylated 5T4
T5 sequence (looked up): T1 sequence (looked up)
Procedure: Binding kinetics of the 5T4-specific mAbs have been studied using two different SPR-based platforms, the Biacore 3000 (GE Healthcare) and the MASS-1 platform (Sierra Sensors). Briefly, 5T4 was captured at the sensor chip surface either via direct amine coupling (Biacore platform) or using a streptavidin coated chip and biotinylated 5T4 (MASS-1 platform). The different 5T4-specific mAbs were then injected over the chip in increasing concentrations and the association and dissociation rates studied in real time. A 1:1 Langmuir model was used for curve fitting.

[6] = biological target: T6, human/mouse 5T4 chimera E4; test: flow cytometry, cells with human/mouse 5T4 chimera
T6 construct: on transfected CHO cells
Procedure: (§2) Epitope mapping was performed by investigation of loss of binding by the antibodies using a panel of human/mouse chimeric 5T4 constructs by flow cytometry. […] Two strategies were used for the epitope mapping as illustrated in FIG. 5. In one approach, seven human/mouse 5T4 chimeras were constructed based on dividing 5T4 into seven different domains (FIG. 5). By replacing each domain with the corresponding mouse sequence seven human/mouse 7 5T4 human/mouse chimeras were generated. The chimeras were generated using the human protein 5T4 sequence NP_006661.1 (reference mRNA sequence NM_006670.4) and the corresponding mouse sequence NP_035757.2 (reference mRNA sequence NM_011627.4). The human/mouse chimeric DNA constructs, as well as human and mouse wild-type 5T4, were cloned into pcDNA3.1 expression vectors. […] As controls human 5T4 and mouse 5T4-transfected cells were used. For flow cytometric analysis, cells were stained with different 5T4 antibodies diluted in FACS buffer (PBS, 0.5% BSA). […] Samples were analysed by FACSverse (BD Biosciences, Heidelberg, Germany) and % positive cells were determined. To compensate for variations in % 5T4 positive cells in the various transfected populations, binding levels were normalized within each chimera by dividing % positive cells for each clone with % positive cells for the clones resulting in the highest % positive cells (% pos cellscloneX/% positive cellsₘₐₓ). A normalized value ≤0.75 was defined as mAb binding being dependent on the replaced region, whereas a normalized value ≤0.25 was defined as complete dependence.

[7] = biological target: T7, human/mouse 5T4 chimera E6; test: flow cytometry, cells with human/mouse 5T4 chimera
T7 construct: on transfected CHO cells
Procedure: as §2

[8] = biological target: T8, human/mouse 5T4 chimera E2; test: flow cytometry, cells with human/mouse 5T4 chimera
T8 construct: on transfected CHO cells
Procedure: as §2

[9] = biological target: T9, human/mouse 5T4 chimera E3; test: flow cytometry, cells with human/mouse 5T4 chimera
T9 construct: on transfected CHO cells
Procedure: as §2

[10] = biological target: T10, human/mouse 5T4 chimera E1; test: flow cytometry, cells with human/mouse 5T4 chimera
T10 construct: on transfected CHO cells
Procedure: as §2

[11] = biological target: T11, human/mouse 5T4 chimera E5; test: flow cytometry, cells with human/mouse 5T4 chimera
T11 construct: on transfected CHO cells
Procedure: as §2

[12] = biological target: T12, human/mouse 5T4 chimera E7; test: flow cytometry, cells with human/mouse 5T4 chimera
T12 construct: on transfected CHO cells
Procedure: as §2

[13] = biological target: T2, cynomolgus 5T4 on transfected CHO cells; test: flow cytometry, cynomolgus 5T4-transfected CHO cells
Procedure: as §1

[14] = biological target: T1, 5T4-Fc; test: ELISA, coated 5T4-Fc
Procedure: ELISA was performed using a standard protocol. Plates (#655074, Greiner Bio-One GmbH, Germany) were pre-coated with 0.5 μg/ml 5T4-Fc (obtained from Peter L. Stern, University of Manchester) overnight. 5T4 antibodies were diluted from 6 to 1.5×10⁻³ μg/ml in 1:4 dilutions and added in duplicates of 50 μl to each well. Binding was detected with rabbit anti-h kappa L-chain-HRP (P0129, Dako Denmark) and the ELISA was developed with SuperSignal ELISA PICO Chemiluminescent substrate (Thermo Scientific Pierce, Rockford, Ill. USA) for 2-10 minutes and read in an automated microplate based multi-detection reader (FLUOstar OPTIMA, Netherlands).

B1: 1626-1208 (bispecific antibody)
heavy: not shown
light: DIQMTQSPSSLSASVGDRVTITCRASQSISSYLNWYQQKPGKAPKLLIYAASSLQSGVPSRFSGSGSGTDFTLTISSLQPEDFATYYCQQGTGYGPLTFGQGTKLEIKRTVAAPSVFIFPPSDEQLKSGTASVVCLLNNFYPREAKVQWKVDNALQSGNSQESVTEQDSKDSTYSLSSTLTLSKADYEKHKVYACEVTHQGLSSPVTKSFNRGEC
notes: Morrison format IgG-scFv
- EC50 [1]: 1.91 nM

B2: 1626-1210 (bispecific antibody)
heavy: not shown
light: B1 light
notes: Morrison format IgG-scFv
- EC50 [1]: 0.4 nM

B3: 1212/1213 (antibody, V domains shown)
VH: EVQLLESGGGLVQPGGSLRLSCAASGFTFSSYAMSWVRQAPGKGLEWVSYISSYGGYTSYADSVKGRFTISRDNSKNTLYLQMNSLRAEDTAVYYCARYHSGVLDYWGQGTLVTVSS
VL: DIQMTQSPSSLSASVGDRVTITCRASQSISSYLNWYQQKPGKAPKLLIYAASSLQSGVPSRFSGSGSGTDFTLTISSLQPEDFATYYCQQYYYHYLLTFGQGTKLEIK
- Ratio EC50cyno5T4/h5T4 [2]: 140
- EC50 [3]: 1.4 nM
- binding result [4]: no binding
- kon [5]: 450000 M⁻¹ s⁻¹
- normalized % positive cells [6]: 1
- normalized % positive cells [7]: 0.03
- normalized % positive cells [8]: 0.9
- normalized % positive cells [9]: 0.93
- normalized % positive cells [10]: 0.89
- normalized % positive cells [11]: 0.84
- normalized % positive cells [12]: 0.88
- EC50 [13]: 30.7 nM
- EC50 [14]: 0.56 nM
